The text below walks through data of US8394765B2, “Methods of treating obesity with two different anti-obesity agents” (Amylin Pharmaceuticals LLC, priority 2004, dated 2013).

Assay [1] can be described thus: DIO rat 14-day mini-pump study of leptin and amylin: food intake, body weight, body composition (Example 1). The assay is classed as in vivo. Particulars: DIO rats, 14 days s.c. osmotic mini-pump, leptin 500 μg/kg/day, amylin 100 μg/kg/day. From the text:
Diet-induced obesity (DIO) in the in the Sprague-Dawley rat is a valuable model for the study of obesity and regulation of energy homeostasis. These rats were developed from a line of (Crl:CD®(SD)BR) rats that are prone to become obese on a diet relatively high in fat and energy. See, for example, Levin (1994) Am. J. Physiol. 267:R527-R535, Levin et al. (1997) Am. J. Physiol. 273:R725-R730. DIO male rats were obtained from Charles River Laboratories, Inc. (Wilmington, Mass.). The rats were housed individually in shoebox cages at 22° C. in a 12/12-hour light dark cycle. Rats were maintained ad-libitum on a moderately high fat diet (32% kcal from fat; Research Diets D1226B) for 6-7 weeks prior to drug treatment. At the end of the fattening period (prior to drug administration), the animals typically achieve a mean body weight of about 500 g.
The DIO animals were divided into four treatment groups. Each group was implanted with subcutaneous osmotic mini-pumps (DURECT Corp., Cupertino, Calif.) designed to deliver vehicle, leptin (500 μg/kg/day), amylin (100 μg/kg/day) or leptin (500 μg/kg/day)+amylin (100 μg/kg/day) for a 14 day period. […] Food intake and body weight were recorded daily. Body composition was measured prior to and after drug treatment using NMR (Echo Medical Systems, Houston, Tex.). […]

Assay [2] in a line: In-bred DIO (Levin) rats, amylin and leptin, body weight and NMR body composition (Example 2). The assay is classed as in vivo, rat. Conditions: two weeks, leptin 500 μg/kg/day, amylin 100 μg/kg/day, FIG. 6A. How it is done:
They were housed individually in shoebox cages at 22 C in a 12/12-hour light dark cycle.
Body composition was measured prior to and after drug treatment using NMR (Echo Medical Systems, Houston, Tex.). For body composition measurements, rats were briefly placed (˜1 min) in a well-ventilated plexiglass tube that was then inserted into a specialized rodent NMR machine. Rats were scanned prior to pump implantation and on the final day of the experiment. This enabled the calculation of changes in actual grams of fat and dry lean tissue (e.g., grams of body fat after treatment−grams of body fat at baseline=change in grams of body fat) and changes in % body composition for fat and dry lean tissue (e.g., % body fat after treatment−% body fat at baseline=change in % body fat).

The nature of assay [3]: Pair-feeding experiment in DIO rats, amylin+leptin (Example 2). Type of assay: in vivo, rat. Conditions: two weeks, leptin 500 μg/kg/day with intake restricted to amount consumed by amylin-treated group, FIG. 7. How it is done: Amylin is known to have an anorectic effect on a recipient. In order to examine the effect of amylin+leptin in the context of an anorectic effect of amylin, a pair-feeding experiment was performed. DIO rats and drug treatment groups were established as described above. DIO rats in the vehicle, amylin, and amylin+leptin treatment groups had ad libitum access to food, while intake in the pair-fed leptin treatment was restricted to the amount consumed by the amylin-treated group. Body weight was recorded daily for the two weeks of treatment. […] The combination of amylin+leptin results in a decrease of about 12% in body weight relative to vehicle control.

Assay [4] in a line: Leptin effect on body weight in normal HSD versus DIO prone rats (Example 3). The assay is classed as in vivo, rat. Particulars: FIG. 9. How it is done: Normal, lean HSD rats were divided into two treatment groups. Each group was implanted with subcutaneous osmotic mini-pumps (DURECT Corp., Cupertino, Calif.) designed to deliver either vehicle or leptin (500 μg/kg/day) for a 14 day period and body weight was recorded weekly. […] The DIO prone animals described herein appear resistant to the weight reducing effect of leptin.

Assay [5] is described as follows: 24-week randomized, double-blind, active-drug-controlled study of pramlintide and metreleptin in overweight and obese subjects (Example 8). Type of assay: in vivo, human. How it is done: To evaluate inter alia the safety, tolerability and effect of the combination of an amylin agonist (pramlintide) and a leptin (metreleptin) on changes in body weight, a 24-week, randomized, double-blind, active-drug-controlled, multicenter study was conducted under USFDA approved protocols. Secondary objectives of the study were the determination of the pharmacokinetics of pramlintide and leptin, waist circumference, rate of change in body weight, and patient reported outcomes including for example without limitation perception of well-being related to weight change and mood. The study enrolled overweight and obese subjects with defined BMI ([…]), with enrollment statistics as provided in Table 2. […] Subjects treated with pramlintide/metreleptin lost an average of 25 pounds from the start of the 24-week study compared with an average of 17 pounds for subjects treated with pramlintide alone.
In an initial lead-in phase, all subjects received dietary instructions and treatment with pramlintide at 180 mcg BID for two weeks, followed by pramlintide at 360 mcg BID for two weeks. Subjects who completed the 4-week lead-in period and who lost 2-8 percent body weight during this period were eligible to continue the study. The term “enrolled” (Table 2) refers to subjects (N=177) receiving at least one dose of pramlintide during the lead-in period. The term “non-randomized” refers to subjects not continuing in the study past the lead-in period. The term “evaluable” refers to subjects who completed Visit 9 (Week 16) study procedures and adequately complied with the study protocol.
After the 4-week lead-in period, for the remaining 20 weeks of the study the subjects were randomized in a 2:2:1 ratio to one of three groups with BID treatment of 1) pramlintide 360 mcg/metreleptin 5 mg (“Leptin+Pramlintide”); 2) pramlintide 360 mcg/placebo (“Pramlintide”); or 3) metreleptin 5 mg/placebo (“Leptin”).

Where [6] appears, read: 4-week pramlintide lead-in, arm of later randomization.

B1: murine leptin (protein, UniProt P41160 22-167, looked up)
Leptin: VPIQKVQDDTKTLIKTIVTRINDISHTQSVSAKQRVTGLDFIPGLHPILSLSKMDQTLAVYQQVLTSLPSQNVLQIANDLENLRDLLHLLAFSKSCSLPQTSGLQKPESLDGVLEASLYSTEVVALSRLQGSLQDILQQLDVSPEC
In the case of B1, the cumulative food intake result in assay [1] (FIG. 1) is “no effect”. Besides, the “total changes in body weight” value in assay [1] (FIG. 2) is “no effect”. Besides, in assay [2], the “vehicle-corrected decrease in percent body weight” value was 2%. The “decrease in body weight relative to vehicle control, pair-fed” value in assay [3] is reported as approximately 6%. Further, the body weight result in assay [4] (DIO prone rats, same leptin dose) is “ineffective”. In addition, the body weight entry in assay [4] (normal, lean HSD rats, leptin 500 μg/kg/day s.c. mini-pump, 14 days) was “significant and sustained reduction in body weight”. Also, the “rate of change in body weight, early rate” value in assay [5] (0-12 weeks, evaluable population, FIG. 24) is reported as −0.19±0.05 kg/week. Besides, the “Mean Change in Body Weight” value in assay [5] (4-week lead-in period in which all subjects received pramlintide (180 then 360 mcg BID), arm of later randomization) was -3.97 kg. For the same molecule, in assay [5] (setting [6]), the “% Weight Loss During Lead-in <5% (share of subjects)” value came to 78% and the “% Weight Loss During Lead-in ≧5% (share of subjects)” value is on record as 22%. Further, the “rate of change in body weight, late rate” value in assay [5] (12-20 weeks, evaluable population, FIG. 24) is given as −0.01±0.08 kg/week.
